According to PMC6535971 (ACS Central Science, 2019):
Changes are numbered by the printed parent chain. Where no end group is shown, it is not given here.

Key:
[1] = target: Methanocaldococcus jannaschii YcaO (MjYcaO), wild type (Methanocaldococcus jannaschii) (UniProt Q58494); assay: fluorescence polarisation
MkYcaO = assay: Cyclodehydration reaction, MALDI-TOF-MS; format: biochemical, Methanopyrus kandleri; conditions: pH 7.0 with additional phosphate
MjYcaO [2] = target: T1, MjYcaO (Methanocaldococcus jannaschii, UniProt Q58494); assay: Cyclodehydration reaction, MALDI-TOF-MS; format: biochemical; conditions: wild-type MjYcaO and ATP at pH 7.5, no added anion
T1 sequence (Q58494 1-385): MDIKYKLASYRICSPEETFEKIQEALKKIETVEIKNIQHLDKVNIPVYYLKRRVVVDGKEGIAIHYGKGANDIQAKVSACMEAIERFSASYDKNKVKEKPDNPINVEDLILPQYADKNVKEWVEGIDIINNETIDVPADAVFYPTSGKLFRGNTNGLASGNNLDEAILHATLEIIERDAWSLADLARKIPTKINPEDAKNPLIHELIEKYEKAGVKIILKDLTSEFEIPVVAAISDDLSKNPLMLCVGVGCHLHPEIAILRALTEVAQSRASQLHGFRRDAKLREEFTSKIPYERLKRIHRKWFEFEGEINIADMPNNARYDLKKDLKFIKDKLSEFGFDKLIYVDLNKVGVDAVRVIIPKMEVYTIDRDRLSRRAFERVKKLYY

MjYcaO [3] = target: T1, MjYcaO; assay: Competition FP binding assay; conditions: competitive FP, MBP-tagged 11-mer variant against FITC-labeled 11-mer peptide
[4] = target: T2, Methanocaldococcus jannaschii YcaO (MjYcaO), wild type (Methanocaldococcus jannaschii, UniProt Q58494 1-385); assay: crystal structure
T2 sequence: T1 sequence (Q58494 1-385)

[5] = target: T2, Methanocaldococcus jannaschii YcaO …; assay: fluorescence polarisation
MjYcaO W180V variant = target: T3, MjYcaO W180V variant (Methanocaldococcus jannaschii, UniProt Q58494 1-385, W180V); assay: fluorescence polarisation
T3 sequence: T1 sequence (Q58494 1-385) with W180V

MjYcaO W303A variant = target: T4, MjYcaO W303A variant (Methanocaldococcus jannaschii, UniProt Q58494 1-385, W303A); assay: fluorescence polarisation
T4 sequence: T1 sequence (Q58494 1-385) with W303A

MjYcaO Y66F variant = target: T5, MjYcaO Y66F variant (Methanocaldococcus jannaschii, UniProt Q58494 1-385, Y66F); assay: fluorescence polarisation
T5 sequence: T1 sequence (Q58494 1-385) with Y66F

MjYcaO Y66G variant = target: T6, MjYcaO Y66G variant (Methanocaldococcus jannaschii, UniProt Q58494 1-385, Y66G); assay: fluorescence polarisation
T6 sequence: T1 sequence (Q58494 1-385) with Y66G

MjYcaO W180F variant = target: T7, MjYcaO W180F variant (Methanocaldococcus jannaschii, UniProt Q58494 1-385, W180F); assay: fluorescence polarisation
T7 sequence: T1 sequence (Q58494 1-385) with W180F

MjYcaO Y66L variant = target: T8, MjYcaO Y66L variant (Methanocaldococcus jannaschii, UniProt Q58494 1-385, Y66L); assay: fluorescence polarisation
T8 sequence: T1 sequence (Q58494 1-385) with Y66L

MjYcaO Y66A variant = target: T9, MjYcaO Y66A variant (Methanocaldococcus jannaschii, UniProt Q58494 1-385, Y66A); assay: fluorescence polarisation
T9 sequence: T1 sequence (Q58494 1-385) with Y66A

[6] = target: T2, Methanocaldococcus jannaschii YcaO …; assay: fluorescence polarisation; remark: listed apart in the source

Molecule: MBP-tagged MjMcrA peptide, D(+2)A variant
- fold increase in Ki against the wild-type peptide [1]: 4 fold

Molecule: MBP-tagged MjMcrA peptide, F(-2)A variant
- fold increase in Ki against the wild-type peptide [1]: 3 fold

Molecule: MjMcrA Y(+1)C 11-mer peptide …
- fold increase in Ki against the wild-type peptide [1]: 2 fold

Molecule: RLGFYGCDLQD [Y(+1)C 11-mer]
- cyclodehydration (MkYcaO): enzyme-dependent conversion to the dehydrated species
- cyclodehydration (change of peptide mass) (MjYcaO [2]): almost no change
- increase in Ki relative to wild-type (MjYcaO [3]): 2 fold

Molecule: MjMcrA Y(+1)S 11-mer peptide
- fold increase in Ki against the wild-type peptide [1]: 2 fold

Molecule: MBP-tagged MjMcrA peptide, Gly(-3) to Ala
- fold increase in Ki against the wild-type peptide [1]: > 6 fold

Molecule: MBP-tagged MjMcrA peptide, Leu(-4) to Ala
- fold increase in Ki against the wild-type peptide [1]: > 6 fold

Molecule: RLGFYGYDLQD [MjMcrA 11-mer peptide RLGFYGYDLQD]
- binding result [4]: binds

Molecule: RLGFYGYDLQD (not fully specified (N-terminus); also: FITC label (site not given here)) [FITC-labeled 11-mer MjMcrA peptide RLGFYGYDLQD (without the double Gly linker)]
- binding result [5]: binds

Molecule: GGRLGFYGYDLQD (not fully specified (N-terminus); also: FITC label (site not given here)) [FITC-labeled 13-mer MjMcrA peptide GG-RLGFYGYDLQD]
- binding result (MjYcaO W180V variant): binds
- binding result (MjYcaO W303A variant): binds
- binding result (MjYcaO Y66F variant): binds
- binding result (MjYcaO Y66G variant): binds
- binding result (MjYcaO W180F variant): binds
- binding result (MjYcaO Y66L variant): binds
- binding result (MjYcaO Y66A variant): binds
- binding result [6]: binds
